Laboratory results as given in patent publication US20230295335A1.

What was measured:
[1] = target: neonatal Fc receptor (FcRn), His-tagged (SinoBiological, cat. no. CT009-H08H-B) (UniProt P55899); experiment: SPR kinetics assay at pH 6.0; His-tagged FcRn captured on anti-His chip, antibody 0-100 nM
[2] = target: neonatal Fc receptor (FcRn), His-tagged (SinoBiological, cat. no. CT009-H08H-B) (UniProt P55899); experiment: SPR kinetics assay at pH 6.0; His-tagged FcRn captured on anti-His chip, antibody 0-100 nM; mean of three experiments

neonatal Fc receptor (FcRn), His-tagged (SinoBiological, cat. no. CT009-H08H-B), sequence (P55899 24-297 limits assumed, form in doubt): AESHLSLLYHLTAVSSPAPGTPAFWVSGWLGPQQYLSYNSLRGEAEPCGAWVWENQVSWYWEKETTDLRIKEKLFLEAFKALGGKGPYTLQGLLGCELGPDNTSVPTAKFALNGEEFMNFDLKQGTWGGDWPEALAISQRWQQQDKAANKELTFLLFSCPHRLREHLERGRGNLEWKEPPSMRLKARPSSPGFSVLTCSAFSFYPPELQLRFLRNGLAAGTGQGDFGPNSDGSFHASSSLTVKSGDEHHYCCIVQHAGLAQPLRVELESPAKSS

IgG1-b12 (antibody)
koff [1]: 0.0322 s⁻¹ | kon [1]: 1.1e+06 M⁻¹ s⁻¹ | Kd [2]: 29 nM
